This note sets out measurements from patent publication US20130005646A1 (Novo Nordisk, published 2013).

Starred links: 1 amine or outer side, 2 acyl side, 3 side chain; linkers in the order of their positions; H or OH if unused. Positions of bridges follow the written chain, without caps; N, C: chain ends. *: point of attachment. C20 diacid = O=C(O)CCCCCCCCCCCCCCCCCCC(=O)*; 19‑carboxyheptadecanoyl = not defined here; γGlu = O=C(O)[C@H](CCC(=O)[*:2])N[*:1]; AEEA = NCCOCCOCC(=O)O

The target of assay [1] is T1, human amylin 3(a) receptor (human calcitonin receptor + RAMP-3) (human, UniProt P30988 25-474; O60896 24-148).
T1 sequence (looked up) 1: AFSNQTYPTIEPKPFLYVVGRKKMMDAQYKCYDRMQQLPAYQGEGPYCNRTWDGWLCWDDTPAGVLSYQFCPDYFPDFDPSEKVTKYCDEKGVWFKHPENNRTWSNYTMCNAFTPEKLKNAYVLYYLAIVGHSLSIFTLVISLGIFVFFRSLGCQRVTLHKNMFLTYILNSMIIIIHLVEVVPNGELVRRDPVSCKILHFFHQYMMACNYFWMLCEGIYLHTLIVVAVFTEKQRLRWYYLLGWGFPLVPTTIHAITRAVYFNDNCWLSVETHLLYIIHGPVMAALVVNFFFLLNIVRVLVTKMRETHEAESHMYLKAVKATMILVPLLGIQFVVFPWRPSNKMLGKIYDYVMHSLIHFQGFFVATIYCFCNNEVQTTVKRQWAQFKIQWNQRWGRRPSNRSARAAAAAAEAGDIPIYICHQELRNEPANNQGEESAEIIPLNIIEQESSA
T1 sequence (looked up) 2: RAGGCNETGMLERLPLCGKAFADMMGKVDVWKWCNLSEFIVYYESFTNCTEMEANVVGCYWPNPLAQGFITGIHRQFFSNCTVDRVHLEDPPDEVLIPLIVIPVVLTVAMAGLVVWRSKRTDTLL
Kind of assay: cell-based or functional assay.

Assay [2] concerns the target T2, human calcitonin (a) receptor (human, UniProt P30988 25-474).
T2 sequence (looked up): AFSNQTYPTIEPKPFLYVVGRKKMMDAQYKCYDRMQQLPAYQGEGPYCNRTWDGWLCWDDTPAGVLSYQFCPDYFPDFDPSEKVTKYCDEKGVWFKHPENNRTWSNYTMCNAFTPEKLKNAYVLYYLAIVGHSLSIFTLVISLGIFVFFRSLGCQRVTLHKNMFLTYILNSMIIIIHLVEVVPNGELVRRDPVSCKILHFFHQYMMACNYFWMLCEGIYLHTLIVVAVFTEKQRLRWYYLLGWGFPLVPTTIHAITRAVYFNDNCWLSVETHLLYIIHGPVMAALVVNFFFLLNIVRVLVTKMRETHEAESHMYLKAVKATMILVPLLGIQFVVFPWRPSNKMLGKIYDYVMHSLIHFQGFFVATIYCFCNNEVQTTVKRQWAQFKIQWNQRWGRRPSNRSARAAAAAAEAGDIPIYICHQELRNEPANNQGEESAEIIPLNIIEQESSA
Kind of assay: cell-based or functional assay.

B1: N-alpha-[(S)-4-Carboxy-4-(19-carboxynonadecanoylamino)butyryl]-Glu-Arg-[Glu1,Pro37]-pramlintide (peptide)
peptide: {C20 diacid-γGlu}-ERECNTATCATQRLANFLVHSSNNFGPILPPTNVGSNTP-NH2
modifications: disulfide 4-9
SMILES: CC[C@H](C)[C@H](NC(=O)[C@@H]1CCCN1C(=O)CNC(=O)[C@H](Cc1ccccc1)NC(=O)[C@H](CC(N)=O)NC(=O)[C@H](CC(N)=O)NC(=O)[C@H](CO)NC(=O)[C@H](CO)NC(=O)[C@H](Cc1c[nH]cn1)NC(=O)[C@@H](NC(=O)[C@H](CC(C)C)NC(=O)[C@H](Cc1ccccc1)NC(=O)[C@H](CC(N)=O)NC(=O)[C@H](C)NC(=O)[C@H](CC(C)C)NC(=O)[C@H](CCCNC(=N)N)NC(=O)[C@H](CCC(N)=O)NC(=O)[C@@H](NC(=O)[C@H](C)NC(=O)[C@@H]1CSSC[C@H](NC(=O)[C@H](CCC(=O)O)NC(=O)[C@H](CCCNC(=N)N)NC(=O)[C@H](CCC(=O)O)NC(=O)CC[C@H](NC(=O)CCCCCCCCCCCCCCCCCCC(=O)O)C(=O)O)C(=O)N[C@@H](CC(N)=O)C(=O)N[C@@H]([C@@H](C)O)C(=O)N[C@@H](C)C(=O)N[C@@H]([C@@H](C)O)C(=O)N1)[C@@H](C)O)C(C)C)C(=O)N[C@@H](CC(C)C)C(=O)N1CCC[C@H]1C(=O)N1CCC[C@H]1C(=O)N[C@H](C(=O)N[C@@H](CC(N)=O)C(=O)N[C@H](C(=O)NCC(=O)N[C@@H](CO)C(=O)N[C@@H](CC(N)=O)C(=O)N[C@H](C(=O)N1CCC[C@H]1C(N)=O)[C@@H](C)O)C(C)C)[C@@H](C)O
As to B1, the “Amylin receptor human EC50” value in assay [1] turned out to be 0.063 nM. The “CTa receptor human EC50” value in assay [2] was found to be 0.061 nM.

B2: N-alpha-[(S)-4-Carboxy-4-(19-carboxynonadecanoylamino)butyryl]-Glu-Arg-[Glu1,Glu14,His17,Pro37]-pramlintide (peptide)
peptide: {C20 diacid-γGlu}-ERECNTATCATQRLAEFLHHSSNNFGPILPPTNVGSNTP-NH2
modifications: disulfide 4-9
SMILES: CC[C@H](C)[C@H](NC(=O)[C@@H]1CCCN1C(=O)CNC(=O)[C@H](Cc1ccccc1)NC(=O)[C@H](CC(N)=O)NC(=O)[C@H](CC(N)=O)NC(=O)[C@H](CO)NC(=O)[C@H](CO)NC(=O)[C@H](Cc1c[nH]cn1)NC(=O)[C@H](Cc1c[nH]cn1)NC(=O)[C@H](CC(C)C)NC(=O)[C@H](Cc1ccccc1)NC(=O)[C@H](CCC(=O)O)NC(=O)[C@H](C)NC(=O)[C@H](CC(C)C)NC(=O)[C@H](CCCNC(=N)N)NC(=O)[C@H](CCC(N)=O)NC(=O)[C@@H](NC(=O)[C@H](C)NC(=O)[C@@H]1CSSC[C@H](NC(=O)[C@H](CCC(=O)O)NC(=O)[C@H](CCCNC(=N)N)NC(=O)[C@H](CCC(=O)O)NC(=O)CC[C@H](NC(=O)CCCCCCCCCCCCCCCCCCC(=O)O)C(=O)O)C(=O)N[C@@H](CC(N)=O)C(=O)N[C@@H]([C@@H](C)O)C(=O)N[C@@H](C)C(=O)N[C@@H]([C@@H](C)O)C(=O)N1)[C@@H](C)O)C(=O)N[C@@H](CC(C)C)C(=O)N1CCC[C@H]1C(=O)N1CCC[C@H]1C(=O)N[C@H](C(=O)N[C@@H](CC(N)=O)C(=O)N[C@H](C(=O)NCC(=O)N[C@@H](CO)C(=O)N[C@@H](CC(N)=O)C(=O)N[C@H](C(=O)N1CCC[C@H]1C(N)=O)[C@@H](C)O)C(C)C)[C@@H](C)O
As for B2, the “Amylin receptor human EC50” value in assay [1] was determined as 0.136 nM. Also, the “CTa receptor human EC50” value in assay [2] amounted to 0.378 nM.

B3: N-alpha-[(S)-4-Carboxy-4-(19-carboxynonadecanoylamino)butyryl]-Glu-Arg-[Glu1,Glu14,Arg17,Pro37]-pramlintide (peptide)
peptide: {C20 diacid-γGlu}-ERECNTATCATQRLAEFLRHSSNNFGPILPPTNVGSNTP-NH2
modifications: disulfide 4-9
SMILES: CC[C@H](C)[C@H](NC(=O)[C@@H]1CCCN1C(=O)CNC(=O)[C@H](Cc1ccccc1)NC(=O)[C@H](CC(N)=O)NC(=O)[C@H](CC(N)=O)NC(=O)[C@H](CO)NC(=O)[C@H](CO)NC(=O)[C@H](Cc1c[nH]cn1)NC(=O)[C@H](CCCNC(=N)N)NC(=O)[C@H](CC(C)C)NC(=O)[C@H](Cc1ccccc1)NC(=O)[C@H](CCC(=O)O)NC(=O)[C@H](C)NC(=O)[C@H](CC(C)C)NC(=O)[C@H](CCCNC(=N)N)NC(=O)[C@H](CCC(N)=O)NC(=O)[C@@H](NC(=O)[C@H](C)NC(=O)[C@@H]1CSSC[C@H](NC(=O)[C@H](CCC(=O)O)NC(=O)[C@H](CCCNC(=N)N)NC(=O)[C@H](CCC(=O)O)NC(=O)CC[C@H](NC(=O)CCCCCCCCCCCCCCCCCCC(=O)O)C(=O)O)C(=O)N[C@@H](CC(N)=O)C(=O)N[C@@H]([C@@H](C)O)C(=O)N[C@@H](C)C(=O)N[C@@H]([C@@H](C)O)C(=O)N1)[C@@H](C)O)C(=O)N[C@@H](CC(C)C)C(=O)N1CCC[C@H]1C(=O)N1CCC[C@H]1C(=O)N[C@H](C(=O)N[C@@H](CC(N)=O)C(=O)N[C@H](C(=O)NCC(=O)N[C@@H](CO)C(=O)N[C@@H](CC(N)=O)C(=O)N[C@H](C(=O)N1CCC[C@H]1C(N)=O)[C@@H](C)O)C(C)C)[C@@H](C)O
Turning to B3, in assay [1], the “Amylin receptor human EC50” value was determined as 0.0895 nM. Further, the “CTa receptor human EC50” value in assay [2] amounted to 0.367 nM.

B4: N-alpha-[2-(2-{2-[2-(2-{2-[(S)-4-Carboxy-4-(19-carboxyheptadecanoylamino)butyrylamino]ethoxy}ethoxy)acetylamino]ethoxy}ethoxy)acetyl]-[His1,Glu14,His17,Ser21,Hi … (peptide)
peptide: {19‑carboxyheptadecanoyl-γGlu-AEEA-AEEA}-HCNTATCATQRLAEFLHHSSSNFGPILPPTNVGSHTY-NH2
modifications: disulfide 2-7; reading uncertain; also: printed as N-alpha-[2-(2-{2-[2-(2-{2-[(S)-4-Carboxy-4-(19-carboxyheptadecanoylamino)butyrylamino]ethoxy}ethoxy)acetylamino]ethoxy}ethoxy)acetyl]-[His1,Glu14,His17,Ser21,His35]-pramlintide
Turning to B4, in assay [1], the “Amylin receptor human EC50” value was 0.938 nM. In assay [2], the “CTa receptor human EC50” value came to 1.08 nM.

B5: N-alpha-[2-(2-{2-[2-(2-{2-[(S)-4-Carboxy-4-(19-carboxyheptadecanoylamino)butyrylamino]ethoxy}ethoxy)acetylamino]ethoxy}ethoxy)acetyl]-[Glu14,His17,Ser21,His35]- … (peptide)
peptide: {19‑carboxyheptadecanoyl-γGlu-AEEA-AEEA}-KCNTATCATQRLAEFLHHSSSNFGPILPPTNVGSHTY-NH2
modifications: disulfide 2-7; reading uncertain; also: printed as N-alpha-[2-(2-{2-[2-(2-{2-[(S)-4-Carboxy-4-(19-carboxyheptadecanoylamino)butyrylamino]ethoxy}ethoxy)acetylamino]ethoxy}ethoxy)acetyl]-[Glu14,His17,Ser21,His35]-pramlintide
Turning to B5, the “Amylin receptor human EC50” value in assay [1] is 0.434 nM. Besides, the “CTa receptor human EC50” value in assay [2] stood at 0.277 nM.

B6: N-alpha-[(S)-4-Carboxy-4-(19-carboxynonadecanoylamino)butyryl]-[Glu14,His17,Gln21,His35)-pramlintide (peptide)
peptide: {C20 diacid-γGlu}-KCNTATCATQRLAEFLHHSSQNFGPILPPTNVGSHTY-NH2
modifications: disulfide 2-7
SMILES: CC[C@H](C)[C@H](NC(=O)[C@@H]1CCCN1C(=O)CNC(=O)[C@H](Cc1ccccc1)NC(=O)[C@H](CC(N)=O)NC(=O)[C@H](CCC(N)=O)NC(=O)[C@H](CO)NC(=O)[C@H](CO)NC(=O)[C@H](Cc1c[nH]cn1)NC(=O)[C@H](Cc1c[nH]cn1)NC(=O)[C@H](CC(C)C)NC(=O)[C@H](Cc1ccccc1)NC(=O)[C@H](CCC(=O)O)NC(=O)[C@H](C)NC(=O)[C@H](CC(C)C)NC(=O)[C@H](CCCNC(=N)N)NC(=O)[C@H](CCC(N)=O)NC(=O)[C@@H](NC(=O)[C@H](C)NC(=O)[C@@H]1CSSC[C@H](NC(=O)[C@H](CCCCN)NC(=O)CC[C@H](NC(=O)CCCCCCCCCCCCCCCCCCC(=O)O)C(=O)O)C(=O)N[C@@H](CC(N)=O)C(=O)N[C@@H]([C@@H](C)O)C(=O)N[C@@H](C)C(=O)N[C@@H]([C@@H](C)O)C(=O)N1)[C@@H](C)O)C(=O)N[C@@H](CC(C)C)C(=O)N1CCC[C@H]1C(=O)N1CCC[C@H]1C(=O)N[C@H](C(=O)N[C@@H](CC(N)=O)C(=O)N[C@H](C(=O)NCC(=O)N[C@@H](CO)C(=O)N[C@@H](Cc1c[nH]cn1)C(=O)N[C@H](C(=O)N[C@@H](Cc1ccc(O)cc1)C(N)=O)[C@@H](C)O)C(C)C)[C@@H](C)O
Take B6: in assay [1], the “Amylin receptor human EC50” value was 0.156 nM. Further, the “CTa receptor human EC50” value in assay [2] came out at 0.169 nM.
